Measurements taken from patent publication US20240368263A1 (PROMETHEUS BIOSCIENCES, published 2024).

T1: human TL1A (Fitzgerald, Prod. #30R-AT070) (human, UniProt O95150 72-251, limits assumed, biotinylated with EZ-Link Sulfo-NHS-LC-Biotin where used as soluble antigen)
T1 construct: also called TNFSF15; biotinylated human TL1A
T1 sequence (looked up): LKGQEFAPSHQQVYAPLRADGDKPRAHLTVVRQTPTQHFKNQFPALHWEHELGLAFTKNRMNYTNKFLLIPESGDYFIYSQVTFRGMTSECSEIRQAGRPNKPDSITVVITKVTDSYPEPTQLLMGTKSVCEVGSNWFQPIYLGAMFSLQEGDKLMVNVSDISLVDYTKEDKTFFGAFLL

T2: Fas/TNFSF6 (R&D Systems, cat. no. 126-FL/CF) (UniProt P48023 134-281)
T2 sequence (looked up): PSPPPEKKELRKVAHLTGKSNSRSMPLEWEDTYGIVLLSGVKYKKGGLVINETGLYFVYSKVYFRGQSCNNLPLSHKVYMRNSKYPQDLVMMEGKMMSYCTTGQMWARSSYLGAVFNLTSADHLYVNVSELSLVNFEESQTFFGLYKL


Assays:
[1] = molecular target: T1, human TL1A (Fitzgerald, Prod. …); assay: capture lift screen and Fab ELISA on coated TL1A
[2] = molecular target: T2, Fas/TNFSF6 (R&D Systems, cat. no. …); assay: ELISA, antigen coated at 1 µg/ml, Fab titrated
Experimental: (§1) Next, all the Fab variants were characterized for their selectivity for human TL1A relative to other TNFSF members TRAIL, LIGHT and Fas. […] The plate was washed 3 times with PBS-T and blocked with 100 μl of 1% BSA/PBS. The block was discarded and the Fab variants or control antibodies (Fas/TNFSF6, R&D Systems, cat. no. AF126; TRAIL/TNFSF10, R&D Systems, cat. no. AF375; LIGHT/TNFSF14, R&D Systems, cat. no. AF664) were titrated in 50 μl 1% BSA/PBS and incubated for 1 h at 25° C. The plate was washed 3 times with PBS-T and secondary HRP-conjugated antibody (diluted 5,000-fold in 1% BSA/PBS) was added for 1 h at 25° C. The plate was washed 3 times with PBS-T and developed.

[3] = molecular target: LIGHT/TNFSF14 (R&D Systems, cat. no. 664-LI/CF) (UniProt O43557 74-240); assay: ELISA, antigen coated at 1 µg/ml, Fab titrated
Experimental: as §1

[4] = molecular target: TRAIL/TNFSF10 (R&D Systems, cat. no. 375-TL/CF) (UniProt P50591 114-281); assay: ELISA, antigen coated at 1 µg/ml, Fab titrated
Experimental: as §1

LIGHT/TNFSF14 (R&D Systems, cat. no. 664-LI/CF), sequence (O43557 74-240 limits assumed): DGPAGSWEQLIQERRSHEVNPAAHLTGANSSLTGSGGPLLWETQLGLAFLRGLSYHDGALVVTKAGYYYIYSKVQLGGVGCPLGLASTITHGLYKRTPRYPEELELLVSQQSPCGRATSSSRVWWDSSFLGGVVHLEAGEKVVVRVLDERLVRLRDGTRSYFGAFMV
TRAIL/TNFSF10 (R&D Systems, cat. no. 375-TL/CF), sequence (P50591 114-281 limits assumed): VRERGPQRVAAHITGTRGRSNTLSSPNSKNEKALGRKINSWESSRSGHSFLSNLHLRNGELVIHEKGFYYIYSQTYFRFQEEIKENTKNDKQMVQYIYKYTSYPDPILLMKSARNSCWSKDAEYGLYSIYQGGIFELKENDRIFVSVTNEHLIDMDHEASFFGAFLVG

binding result [1]	binding result [2]	binding result [3]	binding result [4]	Binder
binds	–	–	–	clone 2-3 Fab (12835 framework variant) (Fab, V domains shown, Fab) VH: QVQLVQSGAEVKKPGASVKLSCKASGFDIQDTYMHWVRQAPGQGLEWMGRIDPASGHTKYDPKFQVRVTMTTDTSTSTVYMELSSLRSEDTAVYYCSRSGGLPDVWGQGTTVTVSS VL: EIVLTQSPGTLSLSPGERATLSCRASSSVSYMYWYQQKPGQAPRPWIYATSNLASGIPDRFSGSGSGTDYTLTISRLEPEDFAVYYCQQWSGNPRTFGGGTKLEIK
binds	–	–	–	12835 (humanized 5C3D11) Fab (Fab, V domains shown, Fab) VH: QVQLVQSGAEVKKPGASVKLSCKASGFDIQDTYMHWVRQAPGQGLEWMGRIDPASGHTKYDPKFQVRVTMTTDTSTSTVYMELSSLRSEDTAVYYCSRSGGLPDVWGQGTTVTVSS VL: EIVLTQSPGTLSLSPGERVTMSCRASSSVSYMYWYQQKPGQAPRPWIYATSNLASGVPDRFSGSGSGTDYTLTISRLEPEDFAVYYCQQWSGNPRTFGGGTKLEIK
–	no binding	no binding	no binding	Clone 34 Fab (Fab, V domains shown, Fab; also called variant 34) VH: QVQLVQSGAEVKKPGASVKVSCKASGFDIQDTYMHWVRQAPGQGLEWMGRIEPASGHIKYDPKFQGRVTMTRDTSTSTVYMELSSLRSEDTAVYYCARSGGLPDWWGQGTTVTVSS VL: EIVLTQSPGTLSLSPGERATLSCRASSSVSYMYWYQQKPGQAPRLLIYATSNLASGIPDRFSGSGSGTDFTLTISRLEPEDFAVYYCQQWEGNPRTFGGGTKLEIK
–	no binding	no binding	no binding	Clone 23 Fab (Fab, V domains shown, Fab; also called variant 23) VH: QVQLVQSGAEVKKPGASVKVSCKASGFDIQDTYMHWVRQAPGQGLEWMGRIDPASGHLKYDPKFQNRVTMTRDTSTSTVYMELSSLRSEDTAVYYCARSGGLPDKWGQGTTVTVSS VL: EIVLTQSPGTLSLSPGERATLSCRASSSVSYMYWYQQKPGQAPRLLIYATSNLASGIPDRFSGSGSGTDFTLTISRLEPEDFAVYYCQQWEGNPRTFGGGTKLEIK
–	no binding	no binding	no binding	Clone X Fab (Fab, V domains shown, Fab) VH: QVQLVQSGAEVKKPGASVKVSCKASGFDIQDTYMHWVRQAPGQGLEWMGRIDPASGHTKYDPKFQGRATITTDTSASTAYLQLSSLRSEDTAVYYCARSGGLPDFWGQGTTVTVSS VL: EIVLTQSPGTLSLSPGERATLSCRASSSVSYMYWYQQKPGQAPRLLIYATSNLASGIPDRFSGSGSGTDFTLTISRLEPEDFAVYYCQQWSGNPRTFGGGTKLEIK
–	no binding	no binding	no binding	Clone 14 Fab (Fab, V domains shown, Fab; also called variant 14) VH: QVQLVQSGAEVKKPGASVKVSCKASGFDIQDTYMHWVRQAPGQGLEWMGRIDPASGHIKYDPKFQKRVTMTRDTSTSTVYMELSSLRSEDTAVYYCARSGGLPDMWGQGTTVTVSS VL: EIVLTQSPGTLSLSPGERATLSCRASSSVSYMYWYQQKPGQAPRLLIYATSNLASGIPDRFSGSGSGTDFTLTISRLEPEDFAVYYCQQWQGNPRTFGGGTKLEIK
binds	–	–	–	21-3 (CDR-grafted HC) Fab (Fab, V domains shown, Fab; also called clone 21-3) VH: QVQLVQSGAEVKKPGASVKVSCKASGFDIQDTYMHWVRQAPGQGLEWMGRIDPASGHTKYDPKFQVRVTMTRDTSTSTVYMELSSLRSEDTAVYYCARSGGLPDVWGQGTTVTVSS VL: EIVLTQSPGTLSLSPGERATLSCRASSSVSYMYWYQQKPGQAPRLLIYATSNLASGVPDRFSGSGSGTDYTLTISRLEPEDFAVYYCQQWSGNPRTFGGGTKLEIK
–	no binding	no binding	no binding	Clone 46 Fab (Fab, V domains shown, Fab) VH: QVQLVQSGAEVKKPGASVKVSCKASGFDIQDTYMHWVRQAPGQGLEWMGRIEPASGHVKYSPKFQVRVTMTRDTSTSTVYMELSSLRSEDTAVYYCARSGGLPDWWGQGTTVTVSS VL: EIVLTQSPGTLSLSPGERATLSCRASSSVSYMYWYQQKPGQAPRLLIYATSNLASGIPDRFSGSGSGTDFTLTISRLEPEDFAVYYCQQWEGNPRTFGGGTKLEIK
binds	–	–	–	clone 1-4 Fab (12835 framework variant) (Fab, V domains shown, Fab) VH: QVQLVQSGAEVKKPGASVKLSCKASGFDIQDTYMHWVRQAPGQGLEWMGRIDPASGHTKYDPKFQVRVTMTTDTSTSTVYMELSSLRSEDTAVYYCSRSGGLPDVWGQGTTVTVSS VL: EIVLTQSPGTLSLSPGERVTMSCRASSSVSYMYWYQQKPGQAPRLWIYATSNLASGIPDRFSGSGSGTDYTLTISRLEPEDFAVYYCQQWSGNPRTFGGGTKLEIK

Second part, the binder before the results:

Binder	binding result [1]	binding result [2]	binding result [3]	binding result [4]
18-7 (CDR-grafted LC) Fab (Fab, V domains shown, Fab; also called clone 18-7) VH: QVQLVQSGAEVKKPGASVKLSCKASGFDIQDTYMHWVRQAPGQGLEWMGRIDPASGHTKYDPKFQVRVTMTRDTSTSTVYMELSSLRSEDTAVYYCSRSGGLPDVWGQGTTVTVSS VL: EIVLTQSPGTLSLSPGERATLSCRASSSVSYMYWYQQKPGQAPRLLIYATSNLASGIPDRFSGSGSGTDFTLTISRLEPEDFAVYYCQQWSGNPRTFGGGTKLEIK	binds	–	–	–
clone 1-3 Fab (12835 framework variant) (Fab, V domains shown, Fab) VH: QVQLVQSGAEVKKPGASVKLSCKASGFDIQDTYMHWVRQAPGQGLEWMGRIDPASGHTKYDPKFQVRVTMTTDTSTSTVYMELSSLRSEDTAVYYCSRSGGLPDVWGQGTTVTVSS VL: EIVLTQSPGTLSLSPGERVTMSCRASSSVSYMYWYQQKPGQAPRPWIYATSNLASGIPDRFSGSGSGTDYTLTISRLEPEDFAVYYCQQWSGNPRTFGGGTKLEIK	binds	–	–	–
Clone 2 Fab (Fab, V domains shown, Fab) VH: QVQLVQSGAEVKKPGASVKVSCKASGFDIQDTYMHWVRQAPGQGLEWMGRIEPASGHIKYSPKFQGRVTMTRDTSTSTVYMELSSLRSEDTAVYYCARSGGLPDWWGQGTTVTVSS VL: EIVLTQSPGTLSLSPGERATLSCRASSSVSYMYWYQQKPGQAPRLLIYATSNLASGIPDRFSGSGSGTDFTLTISRLEPEDFAVYYCQQWEGNPRTFGGGTKLEIK	–	no binding	no binding	no binding
clone 3-4 Fab (12835 framework variant) (Fab, V domains shown, Fab) VH: QVQLVQSGAEVKKPGASVKLSCKASGFDIQDTYMHWVRQAPGQGLEWMGRIDPASGHTKYDPKFQVRVTMTTDTSTSTVYMELSSLRSEDTAVYYCSRSGGLPDVWGQGTTVTVSS VL: EIVLTQSPGTLSLSPGERATLSCRASSSVSYMYWYQQKPGQAPRPWIYATSNLASGVPDRFSGSGSGTDFTLTISRLEPEDFAVYYCQQWSGNPRTFGGGTKLEIK	binds	–	–	–
Clone 52 Fab (Fab, V domains shown, Fab) VH: QVQLVQSGAEVKKPGASVKVSCKASGFDIQDTYMHWVRQAPGQGLEWMGRIEPASGHIKYSPKFQGRVTMTRDTSTSTVYMELSSLRSEDTAVYYCARSGGLPDWWGQGTTVTVSS VL: EIVLTQSPGTLSLSPGERATLSCGASSSVSYMYWYQQKPGQAPRLLIYATSNLASGIPDRFSGSGSGTDFTLTISRLEPEDFAVYYCQQWEGNPRTFGGGTKLEIK	–	no binding	no binding	no binding
Clone 17L Fab (Fab, V domains shown, Fab) VH: QVQLVQSGAEVKKPGASVKVSCKASGFDIQDTYMHWVRQAPGQGLEWMGRIDPASGHLKYDPKFQVRVTMTRDTSTSTVYMELSSLRSEDTAVYYCARSGGLPDMWGQGTTVTVSS VL: EIVLTQSPGTLSLSPGERATLSCRASSSVSYMYWYQQKPGQAPRLLIYATSNLASGIPDRFSGSGSGTDFTLTISRLEPEDFAVYYCQQWQGNPRTFGGGTKLEIK	–	no binding	no binding	no binding
Clone 53 Fab (Fab, V domains shown, Fab; also called variant 53) VH: QVQLVQSGAEVKKPGASVKVSCKASGFDIQDTYMHWVRQAPGQGLEWMGRIEPASGHLKYDPKFQERVTMTRDTSTSTVYMELSSLRSEDTAVYYCARSGGLPDKWGQGTTVTVSS VL: EIVLTQSPGTLSLSPGERATLSCRASSSVSYMYWYQQKPGQAPRLLIYATSNLASGIPDRFSGSGSGTDFTLTISRLEPEDFAVYYCQQWEGNPRTFGGGTKLEIK	–	no binding	no binding	no binding
Clone 47 Fab (Fab, V domains shown, Fab; also called variant 47) VH: QVQLVQSGAEVKKPGASVKVSCKASGFDIQDTYMHWVRQAPGQGLEWMGRIEPASGHVKYDPKFQTRVTMTRDTSTSTVYMELSSLRSEDTAVYYCARSGGLPDWWGQGTTVTVSS VL: EIVLTQSPGTLSLSPGERATLSCRASSSVSYMYWYQQKPGQAPRLLIYATSNLASGIPDRFSGSGSGTDFTLTISRLEPEDFAVYYCQQWEGNPRTFGGGTKLEIK	–	no binding	no binding	no binding
